Assay results as given in the supplement of paper PMC11246515.
± gives the standard deviation of the averaged measurements.

Experiment: total protein half-life in vivo (active degradation + dilution); higher = more stable protein
[1] = E. coli NCM3722 delta-clpP, growth: N-lim chemostat, doubling time 6 h
[2] = E. coli NCM3722 delta-hslV, growth: N-lim chemostat, doubling time 6 h
[3] = E. coli NCM3722 delta-lon, growth: N-lim chemostat, doubling time 6 h
[4] = E. coli NCM3722 delta-smpB, growth: N-lim chemostat, doubling time 6 h
[5] = wild type E. coli NCM3722, growth: C-lim chemostat, doubling time 3 h
[6] = wild type E. coli NCM3722, growth: C-lim chemostat, doubling time 6 h
[7] = wild type E. coli NCM3722, growth: C-lim chemostat, doubling time 12 h
[8] = wild type E. coli NCM3722, growth: N-lim chemostat, doubling time 6 h
[9] = wild type E. coli NCM3722, growth: N-lim chemostat, doubling time 12 h
[10] = wild type E. coli NCM3722, growth: P-lim chemostat, doubling time 6 h
[11] = wild type E. coli NCM3722, growth: P-lim chemostat, doubling time 12 h
[12] = E. coli NCM3722 delta-clpP delta-lon delta-hslV, growth: N-lim chemostat, doubling time 6 h

| Sequence | total protein half-life in vivo [1] [h] | total protein half-life in vivo [2] [h] | total protein half-life in vivo [3] [h] | total protein half-life in vivo [4] [h] | total protein half-life in vivo [5] [h] | total protein half-life in vivo [6] [h] | total protein half-life in vivo [7] [h] | total protein half-life in vivo [8] [h] | total protein half-life in vivo [9] [h] | total protein half-life in vivo [10] [h] | total protein half-life in vivo [11] [h] | total protein half-life in vivo [12] [h] |
| --- | --- | --- | --- | --- | --- | --- | --- | --- | --- | --- | --- | --- |
| MKKLVLSLSLVLAFSSATAAFAAIPQNIRIGTDPTYAPFESKNSQGELVGFDIDLAKELCKRINTQCTFVENPLDALIPSLKAKKIDAIMSSLSITEKRQQEIAFTDKLYAADSRLVVAKNSDIQPTVESLKGKRVGVLQGTTQETFGNEHWAPKGIEIVSYQGQDNIYSDLTAGRIDAAFQDEVAASEGFLKQPVGKDYKFGGPSVKDEKLFGVGTGMGLRKEDNELREALNKAFAEMRADGTYEKLAKKYFDFDVYGG [P0AEU0] | 5.99 ± 0.12 | 6.1 ± 0.068 | 6.35 ± 0.24 | 5.88 ± 0.91 | 3.08 ± 0.17 | 6.45 ± 1 | 13.1 ± 0.17 | 5.8 ± 0.59 | 13.9 ± 0.36 | 6.2 ± 0.54 | 14.3 ± 0.77 | – |
| MIEKIWSGESPLWRLLLPLSWLYGLVSGAIRLCYKLKLKRAWRAPVPVVVVGNLTAGGNGKTPVVVWLVEQLQQRGIRVGVVSRGYGGKAESYPLLLSADTTTAQAGDEPVLIYQRTDAPVAVSPVRSDAVKAILAQHPDVQIIVTDDGLQHYRLARDVEIVVIDGVRRFGNGWWLPAGPMRERAGRLKSVDAVIVNGGVPRSGEIPMHLLPGQAVNLRTGTRCDVAQLEHVVAMAGIGHPPRFFATLKMCGVQPEKCVPLADHQSLNHADVSALVSAGQTLVMTEKDAVKCRAFAEENWWYLPVDAQLSGDEPAKLLTQLTLLASGN | 6.49 | 6.52 ± 1.2 | 6.39 ± 0.34 | 5.71 ± 0.64 | 3.11 ± 0.41 | 7.25 ± 0.18 | 8.44 | 5.52 | – | – | 13.8 ± 2 | 6.05 ± 0.42 |
| METKDLIVIGGGINGAGIAADAAGRGLSVLMLEAQDLACATSSASSKLIHGGLRYLEHYEFRLVSEALAEREVLLKMAPHIAFPMRFRLPHRPHLRPAWMIRIGLFMYDHLGKRTSLPGSTGLRFGANSVLKPEIKRGFEYSDCWVDDARLVLANAQMVVRKGGEVLTRTRATSARRENGLWIVEAEDIDTGKKYSWQARGLVNATGPWVKQFFDDGMHLPSPYGIRLIKGSHIVVPRVHTQKQAYILQNEDKRIVFVIPWMDEFSIIGTTDVEYKGDPKAVKIEESEINYLLNVYNTHFKKQLSRDDIVWTYSGVRPLCDDESDSPQAITRDYTLDIHDENGKAPLLSVFGGKLTTYRKLAEHALEKLTPYYQGIGPAWTKESVLPGGAIEGDRDDYAARLRRRYPFLTESLARHYARTYGSNSELLLGNAGTVSDLGEDFGHEFYEAELKYLVDHEWVRRADDALWRRTKQGMWLNADQQSRVSQWLVEYTQQRLSLAS | 5.96 ± 0.25 | 2.71 ± 0.75 | 2.76 ± 0.13 | 2.4 ± 0.17 | 2.1 ± 0.094 | 3.51 ± 0.53 | 4.92 ± 0.65 | 2.83 ± 0.088 | 4.179 ± 0.033 | 2.92 ± 0.053 | 5.02 ± 0.13 | 6.86 ± 0.86 |
| MERFDAIIIGAGAAGMFCSALAGQAGRRVLLIDNGKKPGRKILMSGGGRCNFTNLYVEPGAYLSQNPHFCKSALARFTQWDFIDLVNKHGIAWHEKTLGQLFCDDSAQQIVDMLVDECEKGNVTFRLRSEVLSVAKDETGFTLDLNGMTVGCEKLVIATGGLSMPGLGASPFGYKIAEQFGLNVLPTRAGLVPFTLHKPLLEELQVLAGVAVPSVITAENGTVFRENLLFTHRGLSGPAVLQISSYWQPGEFVSINLLPDVDLETFLNEQRNAHPNQSLKNTLAVHLPKRLVERLQQLGQIPDVSLKQLNVRDQQALISTLTDWRVQPNGTEGYRTAEVTLGGVDTNELSSRTMEARKVPGLYFIGEVMDVTGWLGGYNFQWAWSSAWACAQDLIAAKSS | 5.67 ± 1.1 | – | 5.81 ± 0.69 | 4.72 ± 0.1 | 3.282 ± 0.019 | 6.42 ± 0.6 | 12.3 ± 1.9 | 5.15 ± 0.21 | 9.59 ± 0.85 | 5.88 ± 0.17 | 10.8 ± 1.7 | 5.02 ± 0.28 |
| MAQRVQLTATVSENQLGQRLDQALAEMFPDYSRSRIKEWILDQRVLVNGKVCDKPKEKVLGGEQVAINAEIEEEARFEPQDIPLDIVYEDEDIIIINKPRDLVVHPGAGNPDGTVLNALLHYYPPIADVPRAGIVHRLDKDTTGLMVVAKTVPAQTRLVESLQRREITREYEAVAIGHMTAGGTVDEPISRHPTKRTHMAVHPMGKPAVTHYRIMEHFRVHTRLRLRLETGRTHQIRVHMAHITHPLVGDPVYGGRPRPPKGASEAFISTLRKFDRQALHATMLRLYHPISGIEMEWHAPIPQDMVELIEVMRADFEEHKDEVDWL | 5.7 ± 0.94 | 5.65 ± 0.66 | 5.51 ± 0.46 | 4.66 ± 0.21 | 3.66 ± 0.34 | 5.83 ± 0.07 | 9.95 ± 1.4 | 5.63 ± 0.2 | 8.47 ± 0.64 | 5.72 ± 0.12 | 11.2 ± 0.25 | 5.82 ± 0.6 |
| MAANAFVRARIDEDLKNQAADVLAGMGLTISDLVRITLTKVAREKALPFDLREPNQLTIQSIKNSEAGIDVHKAKDADDLFDKLGI | – | – | – | – | – | 0.925 ± 0.13 | 0.789 | 0.421 | 4.6 | 0.432 | 1.38 | 2.38 ± 0.28 |
| MKPVKPPRINGRVPVLSAQEAVNYIPDEATLCVLGAGGGILEATTLITALADKYKQTQTPRNLSIISPTGLGDRADRGISPLAQEGLVKWALCGHWGQSPRISELAEQNKIIAYNYPQGVLTQTLRAAAAHQPGIISDIGIGTFVDPRQQGGKLNEVTKEDLIKLVEFDNKEYLYYKAIAPDIAFIRATTCDSEGYATFEDEVMYLDALVIAQAVHNNGGIVMMQVQKMVKKATLHPKSVRIPGYLVDIVVVDPDQTQLYGGAPVNRFISGDFTLDDSTKLSLPLNQRKLVARRALFEMRKGAVGNVGVGIADGIGLVAREEGCADDFILTVETGPIGGITSQGIAFGANVNTRAILDMTSQFDFYHGGGLDVCYLSFAEVDQHGNVGVHKFNGKIMGTGGFIDISATSKKIIFCGTLTAGSLKTEITDGKLNIVQEGRVKKFIRELPEITFSGKIALERGLDVRYITERAVFTLKEDGLHLIEIAPGVDLQKDILDKMDFTPVISPELKLMDERLFIDAAMGFVLPEAAH | 4.03 ± 0.058 | 3.94 ± 0.05 | 4.17 ± 0.1 | 3.728 ± 0.031 | 2.75 ± 0.29 | 5.2 ± 0.61 | 10.7 ± 1.1 | 3.81 ± 0.14 | 6.72 ± 0.91 | 6.39 ± 0.56 | 11.1 ± 0.4 | 5.68 ± 0.1 |
| MTTLLNPYFGEFGGMYVPQILMPALRQLEEAFVSAQKDPEFQAQFNDLLKNYAGRPTALTKCQNITAGTNTTLYLKREDLLHGGAHKTNQVLGQALLAKRMGKTEIIAETGAGQHGVASALASALLGLKCRIYMGAKDVERQSPNVFRMRLMGAEVIPVHSGSATLKDACNEALRDWSGSYETAHYMLGTAAGPHPYPTIVREFQRMIGEETKAQILEREGRLPDAVIACVGGGSNAIGMFADFINETNVGLIGVEPGGHGIETGEHGAPLKHGRVGIYFGMKAPMMQTEDGQIEESYSISAGLDFPSVGPQHAYLNSTGRADYVSITDDEALEAFKTLCLHEGIIPALESSHALAHALKMMRENPDKEQLLVVNLSGRGDKDIFTVHDILKARGEI [P0A879] | 3.49 ± 0.14 | 3.48 ± 0.17 | 3.69 ± 0.27 | 3.78 ± 0.36 | 2.95 ± 0.1 | 5.28 ± 0.27 | 9.833 ± 0.072 | 3.54 ± 0.042 | 5.38 ± 0.17 | 6.4 ± 1.5 | 11.5 ± 1.2 | 3.87 ± 0.32 |
| MPALDLIRPSVTAMRVIASVNADFARELKLPPHIRSLGLISADSDDVTYIAADEATKQAMVEVVYGRSLYAGAAHGPSPTAGEVLIMLGGPNPAEVRAGLDAMIAHIENGAAFQWANDAQDTAFLAHVVSRTGSYLSSTAGITLGDPMAYLVAPPLEATYGIDAALKSADVQLATYVPPPSETNYSAAFLTGSQAACKAACNAFTDAVLEIARNPIQRA | 4.87 | 4.39 ± 0.31 | 4.68 ± 0.094 | 4.69 ± 0.1 | 3.11 ± 0.15 | 5.97 ± 0.72 | 11.95 ± 0.013 | 4.87 ± 0.41 | 7.99 | 6.1512 ± 0.003 | 11.4 ± 0.5 | 6.04 ± 0.88 |
| MKESNSRREFLSQSGKMVTAAALFGTSVPLAHAAVAGTLNCEANNTMKITDPHYYLDNVLLETGFDYENGVAVQTRTARQTVEIQDGKIVALRENKLHPDATLPHYDAGGKLMLPTTRDMHIHLDKTFYGGPWRSLNRPAGTTIQDMIKLEQKMLPELQPYTQERAEKLIDLLQSKGTTIARSHCNIEPVSGLKNLQNLQAVLARRQAGFECEIVAFPQHGLLLSKSEPLMREAMQAGAHYVGGLDPTSVDGAMEKSLDTMFQIALDYDKGVDIHLHETTPAGVAAINYMVETVEKTPQLKGKLTISHAFALATLNEQQVDELANRMVVQQISIASTVPIGTLHMPLKQLHDKGVKVMTGTDSVIDHWSPYGLGDMLEKANLYAQLYIRPNEQNLSRSLFLATGDVLPLNEKGERVWPKAQDDASFVLVDASCSAEAVARISPRTATFHKGQLVWGSVAG | 4.34 ± 0.53 | 4.51 ± 0.31 | 4.82 ± 0.11 | 3.937 ± 0.008 | 3.21 ± 0.41 | – | 9.95 ± 0.62 | 4.32 ± 0.17 | 6.843 ± 0.056 | 5.67 ± 0.43 | 11.53 ± 0.036 | 4.64 ± 0.15 |
| MVLMIVSGRSGSGKSVALRALEDMGFYCVDNLPVVLLPDLARTLADREISAAVSIDVRNMPESPEIFEQAMSNLPDAFSPQLLFLDADRNTLIRRYSDTRRLHPLSSKNLSLESAIDKESDLLEPLRSRADLIVDTSEMSVHELAEMLRTRLLGKRERELTMVFESFGFKHGIPIDADYVFDVRFLPNPHWDPKLRPMTGLDKPVAAFLDRHTEVHNFIYQTRSYLELWLPMLETNNRSYLTVAIGCTGGKHRSVYIAEQLADYFRSRGKNVQSRHRTLEKRKP [P0A894] | 4.58 ± 0.2 | 4.92 ± 0.47 | 5.04 ± 0.64 | 4.453 ± 0.016 | 3.02 ± 0.095 | 6.62 ± 1.3 | 11.5 ± 0.81 | 4.48 ± 0.31 | 7.88 ± 1.8 | 5.95 ± 0.11 | 12.1 ± 0.55 | 5.6 ± 1.1 |
